First the molecules themselves.
T1: EsCas13d, nuclease-dead (Eubacterium siraeum, UniProt B0MS50, R295A;H300A;R849A;H854A)
T1 sequence: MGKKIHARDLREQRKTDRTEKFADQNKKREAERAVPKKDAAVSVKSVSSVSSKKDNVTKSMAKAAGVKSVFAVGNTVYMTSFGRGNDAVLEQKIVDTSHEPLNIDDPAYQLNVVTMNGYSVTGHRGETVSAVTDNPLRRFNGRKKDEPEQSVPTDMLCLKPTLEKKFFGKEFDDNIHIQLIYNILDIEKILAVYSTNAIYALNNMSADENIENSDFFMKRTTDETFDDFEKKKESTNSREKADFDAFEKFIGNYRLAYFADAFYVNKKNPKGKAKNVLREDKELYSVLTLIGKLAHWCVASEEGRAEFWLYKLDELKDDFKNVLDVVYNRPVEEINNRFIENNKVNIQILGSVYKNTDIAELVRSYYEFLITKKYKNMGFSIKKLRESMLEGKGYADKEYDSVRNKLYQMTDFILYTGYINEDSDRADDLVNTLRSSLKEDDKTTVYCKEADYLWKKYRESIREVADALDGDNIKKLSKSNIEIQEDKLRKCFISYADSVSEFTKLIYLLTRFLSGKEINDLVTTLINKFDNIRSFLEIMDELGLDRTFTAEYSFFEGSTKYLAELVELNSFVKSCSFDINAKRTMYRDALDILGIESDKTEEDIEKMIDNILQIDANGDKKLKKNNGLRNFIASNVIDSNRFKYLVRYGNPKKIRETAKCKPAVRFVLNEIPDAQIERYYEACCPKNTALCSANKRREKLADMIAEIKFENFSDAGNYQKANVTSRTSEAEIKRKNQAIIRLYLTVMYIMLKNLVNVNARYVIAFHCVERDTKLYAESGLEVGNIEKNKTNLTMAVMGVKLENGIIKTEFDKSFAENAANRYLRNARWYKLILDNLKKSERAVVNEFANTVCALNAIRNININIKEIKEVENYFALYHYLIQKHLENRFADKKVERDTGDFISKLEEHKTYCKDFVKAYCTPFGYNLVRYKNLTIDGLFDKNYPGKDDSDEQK

B1: target 1 insC 3' of 8,insG 3' of 8 (mixed)
RNA 1: CACCCGUGCAAAAAUGCAGGGGUCUAAAACUGAGCGGAUAACCUCUCUAUGG
RNA 2: GGGAAUGGAUCCACAUCUACGAAUUCGUACCAUAGAGAGGUUAUCGCCGCUCACCGAGAUCGGAAGAGCACACGU
B2: target 1 insU 3' of 2,insA 3' of 2 (mixed)
RNA 1: CACCCGUGCAAAAAUGCAGGGGUCUAAAACUGAGCGGAUAACCUCUCUAUGG
RNA 2: GGGAAUGGAUCCACAUCUACGAAUUCGUACCAUAGAGAGGUUAUCCGCUCUAACCGAGAUCGGAAGAGCACACGU
B3: target 1 A1G,C6G (mixed)
RNA 1: CACCCGUGCAAAAAUGCAGGGGUCUAAAACUGAGCGGAUAACCUCUCUAUGG
RNA 2: GGGAAUGGAUCCACAUCUACGAAUUCGUACCAUAGAGAGGUUAUCGGCUCGCCGAGAUCGGAAGAGCACACGU
B4: target 1 insC 3' of 17,insC 3' of 15 (mixed)
RNA 1: CACCCGUGCAAAAAUGCAGGGGUCUAAAACUGAGCGGAUAACCUCUCUAUGG
RNA 2: GGGAAUGGAUCCACAUCUACGAAUUCGUACCAUAGCAGCAGGUUAUCCGCUCACCGAGAUCGGAAGAGCACACGU
B5: target 2 MT 5'PFS AUG 3'PFS CAU (mixed)
RNA 1: CACCCGUGCAAAAUUGCAGGGGUCUAAAACCUUCUCCAAAUUGUUUCAUCCU
RNA 2: GGGAAUGGAUCCACAUCUACGAAUUCAUGAGGAUGAAACAAUUUGGAGAAGCAUAGAUCGGAAGAGCACACGU
B6: target 2 MT 5'PFS AAU 3'PFS CAC (mixed)
RNA 1: CACCCGUGCAAAAUUGCAGGGGUCUAAAACCUUCUCCAAAUUGUUUCAUCCU
RNA 2: GGGAAUGGAUCCACAUCUACGAAUUCAAUAGGAUGAAACAAUUUGGAGAAGCACAGAUCGGAAGAGCACACGU
B7: target 2 MT 5'PFS GAA 3'PFS CAU (mixed)
RNA 1: CACCCGUGCAAAAUUGCAGGGGUCUAAAACCUUCUCCAAAUUGUUUCAUCCU
RNA 2: GGGAAUGGAUCCACAUCUACGAAUUCGAAAGGAUGAAACAAUUUGGAGAAGCAUAGAUCGGAAGAGCACACGU
B8: target 2 MT 5'PFS GUU 3'PFS CCA (mixed)
RNA 1: CACCCGUGCAAAAUUGCAGGGGUCUAAAACCUUCUCCAAAUUGUUUCAUCCU
RNA 2: GGGAAUGGAUCCACAUCUACGAAUUCGUUAGGAUGAAACAAUUUGGAGAAGCCAAGAUCGGAAGAGCACACGU
B9: target 2 MT 5'PFS AAU 3'PFS CAU (mixed)
RNA 1: CACCCGUGCAAAAUUGCAGGGGUCUAAAACCUUCUCCAAAUUGUUUCAUCCU
RNA 2: GGGAAUGGAUCCACAUCUACGAAUUCAAUAGGAUGAAACAAUUUGGAGAAGCAUAGAUCGGAAGAGCACACGU
B10: target 2 MT 5'PFS GUU 3'PFS CCG (mixed)
RNA 1: CACCCGUGCAAAAUUGCAGGGGUCUAAAACCUUCUCCAAAUUGUUUCAUCCU
RNA 2: GGGAAUGGAUCCACAUCUACGAAUUCGUUAGGAUGAAACAAUUUGGAGAAGCCGAGAUCGGAAGAGCACACGU
B11: target 2 MT 5'PFS AAA 3'PFS UUA (mixed)
RNA 1: CACCCGUGCAAAAUUGCAGGGGUCUAAAACCUUCUCCAAAUUGUUUCAUCCU
RNA 2: GGGAAUGGAUCCACAUCUACGAAUUCAAAAGGAUGAAACAAUUUGGAGAAGUUAAGAUCGGAAGAGCACACGU
B12: target 2 MT 5'PFS AUU 3'PFS UCG (mixed)
RNA 1: CACCCGUGCAAAAUUGCAGGGGUCUAAAACCUUCUCCAAAUUGUUUCAUCCU
RNA 2: GGGAAUGGAUCCACAUCUACGAAUUCAUUAGGAUGAAACAAUUUGGAGAAGUCGAGAUCGGAAGAGCACACGU
B13: target 2 MT 5'PFS GGG 3'PFS UCA (mixed)
RNA 1: CACCCGUGCAAAAUUGCAGGGGUCUAAAACCUUCUCCAAAUUGUUUCAUCCU
RNA 2: GGGAAUGGAUCCACAUCUACGAAUUCGGGAGGAUGAAACAAUUUGGAGAAGUCAAGAUCGGAAGAGCACACGU
B14: target 2 MT 5'PFS AGC 3'PFS CCA (mixed)
RNA 1: CACCCGUGCAAAAUUGCAGGGGUCUAAAACCUUCUCCAAAUUGUUUCAUCCU
RNA 2: GGGAAUGGAUCCACAUCUACGAAUUCAGCAGGAUGAAACAAUUUGGAGAAGCCAAGAUCGGAAGAGCACACGU
B15: target 2 MT 5'PFS GGG 3'PFS UCG (mixed)
RNA 1: CACCCGUGCAAAAUUGCAGGGGUCUAAAACCUUCUCCAAAUUGUUUCAUCCU
RNA 2: GGGAAUGGAUCCACAUCUACGAAUUCGGGAGGAUGAAACAAUUUGGAGAAGUCGAGAUCGGAAGAGCACACGU
B16: target 2 MT 5'PFS AGC 3'PFS CCG (mixed)
RNA 1: CACCCGUGCAAAAUUGCAGGGGUCUAAAACCUUCUCCAAAUUGUUUCAUCCU
RNA 2: GGGAAUGGAUCCACAUCUACGAAUUCAGCAGGAUGAAACAAUUUGGAGAAGCCGAGAUCGGAAGAGCACACGU
B17: target 2 MT 5'PFS CCG 3'PFS CCC (mixed)
RNA 1: CACCCGUGCAAAAUUGCAGGGGUCUAAAACCUUCUCCAAAUUGUUUCAUCCU
RNA 2: GGGAAUGGAUCCACAUCUACGAAUUCCCGAGGAUGAAACAAUUUGGAGAAGCCCAGAUCGGAAGAGCACACGU
B18: target 2 MT 5'PFS GGG 3'PFS UCC (mixed)
RNA 1: CACCCGUGCAAAAUUGCAGGGGUCUAAAACCUUCUCCAAAUUGUUUCAUCCU
RNA 2: GGGAAUGGAUCCACAUCUACGAAUUCGGGAGGAUGAAACAAUUUGGAGAAGUCCAGAUCGGAAGAGCACACGU
B19: target 2 MT 5'PFS AUU 3'PFS CGU (mixed)
RNA 1: CACCCGUGCAAAAUUGCAGGGGUCUAAAACCUUCUCCAAAUUGUUUCAUCCU
RNA 2: GGGAAUGGAUCCACAUCUACGAAUUCAUUAGGAUGAAACAAUUUGGAGAAGCGUAGAUCGGAAGAGCACACGU
B20: target 2 MT 5'PFS UCG 3'PFS CCG (mixed)
RNA 1: CACCCGUGCAAAAUUGCAGGGGUCUAAAACCUUCUCCAAAUUGUUUCAUCCU
RNA 2: GGGAAUGGAUCCACAUCUACGAAUUCUCGAGGAUGAAACAAUUUGGAGAAGCCGAGAUCGGAAGAGCACACGU
B21: target 2 MT 5'PFS AUG 3'PFS CAA (mixed)
RNA 1: CACCCGUGCAAAAUUGCAGGGGUCUAAAACCUUCUCCAAAUUGUUUCAUCCU
RNA 2: GGGAAUGGAUCCACAUCUACGAAUUCAUGAGGAUGAAACAAUUUGGAGAAGCAAAGAUCGGAAGAGCACACGU
B22: target 2 MT 5'PFS AAU 3'PFS CAA (mixed)
RNA 1: CACCCGUGCAAAAUUGCAGGGGUCUAAAACCUUCUCCAAAUUGUUUCAUCCU
RNA 2: GGGAAUGGAUCCACAUCUACGAAUUCAAUAGGAUGAAACAAUUUGGAGAAGCAAAGAUCGGAAGAGCACACGU
B23: target 2 MT 5'PFS AUU 3'PFS UCA (mixed)
RNA 1: CACCCGUGCAAAAUUGCAGGGGUCUAAAACCUUCUCCAAAUUGUUUCAUCCU
RNA 2: GGGAAUGGAUCCACAUCUACGAAUUCAUUAGGAUGAAACAAUUUGGAGAAGUCAAGAUCGGAAGAGCACACGU
B24: target 2 MT 5'PFS UAG 3'PFS CCC (mixed)
RNA 1: CACCCGUGCAAAAUUGCAGGGGUCUAAAACCUUCUCCAAAUUGUUUCAUCCU
RNA 2: GGGAAUGGAUCCACAUCUACGAAUUCUAGAGGAUGAAACAAUUUGGAGAAGCCCAGAUCGGAAGAGCACACGU
B25: target 2 MT 5'PFS AAA 3'PFS UUU (mixed)
RNA 1: CACCCGUGCAAAAUUGCAGGGGUCUAAAACCUUCUCCAAAUUGUUUCAUCCU
RNA 2: GGGAAUGGAUCCACAUCUACGAAUUCAAAAGGAUGAAACAAUUUGGAGAAGUUUAGAUCGGAAGAGCACACGU
B26: target 2 MT 5'PFS GGG 3'PFS UCU (mixed)
RNA 1: CACCCGUGCAAAAUUGCAGGGGUCUAAAACCUUCUCCAAAUUGUUUCAUCCU
RNA 2: GGGAAUGGAUCCACAUCUACGAAUUCGGGAGGAUGAAACAAUUUGGAGAAGUCUAGAUCGGAAGAGCACACGU
B27: target 2 MT 5'PFS CCG 3'PFS CCU (mixed)
RNA 1: CACCCGUGCAAAAUUGCAGGGGUCUAAAACCUUCUCCAAAUUGUUUCAUCCU
RNA 2: GGGAAUGGAUCCACAUCUACGAAUUCCCGAGGAUGAAACAAUUUGGAGAAGCCUAGAUCGGAAGAGCACACGU

This data set has as its target T1, EsCas13d, nuclease-dead. Description: crRNA (strand 1, pre-loaded); Mg2+; 40 mM Tris-HCl pH 7.5, 150 mM NaCl, 6 mM MgCl2, 1 mM DTT, 0.1% Tween-20, 0.2 mg/ml BSA; 25 C; 10 min per concentration, then washed. Particulars: tags: His6-TwinStrep-SUMO cleaved; N-terminal SNAP kept (SNAP-Surface 488); label: 3' end held by stalled T7 RNA polymerase.
The term Kd denotes the constant that tells how readily two partners part at equilibrium. Low values mean tighter binding, high ones weaker binding. B1 gave a Kd of 10.6 ± 0.5 nM. B2 came in with a Kd of 10.9 ± 0.5 nM. For B3 the value was 7.3 ± 0.4 nM; for B4, 38 ± 6 nM; for B5, 7.6 ± 0.8 nM. In turn, B6 registered a Kd of 5.2 ± 1 nM. This Kd and that of the molecule before are within 1.5-fold of each other. The value for B7 was 8.6 ± 1.7 nM; that for B8 was approximately 90 nM. For the molecule B9, the affinity, expressed as Kd, was 3 ± 0.6 nM.

As for B10, the Kd stood at 14.3 ± 1.2 nM. B11 had a Kd of 5.6 ± 1.5 nM. For B12 the value was 7.8 ± 0.7 nM; for B13, 11.3 ± 1.5 nM. Turning to B14, the Kd came out at 78 ± 32 nM. This Kd is about 6.9-fold higher than that of the molecule before. Turning to B15, the Kd amounted to 11.5 ± 0.8 nM. Against the preceding molecule, the Kd is about 6.8-fold lower. B16 registered a Kd of 9.3 ± 1 nM.

In the case of B17, the Kd stood at 3.1 ± 0.5 nM. The value for B18 was 52 ± 14 nM; that for B19 was 6.9 ± 0.9 nM. For B20 the value was 90 ± 40 nM; for B21, 9 ± 1.4 nM. In turn, B22 yielded an equilibrium dissociation constant (Kd) of 4.3 ± 0.7 nM. For B23 the value was 7 ± 0.8 nM; for B24, 24 ± 9 nM; for B25, 23 ± 10 nM. For B26 the value was 12.1 ± 0.8 nM. The value for B27 was 8.4 ± 1.6 nM.

The values are drawn from article PMC10786891, “Massively parallel profiling of RNA-targeting CRISPR-Cas13d”.
